Laboratory results taken from article PMC4528106.
Where two headings read alike, the source gives them in different places.

Assays:
[1] = target: SARS-CoV 3CLpro with authentic N and C termini (SARS-CoV)
[2] = target: MERS-CoV 3CLpro (nsp5 protease), without any N- or C-terminal extensions (MERS-CoV)
[3] = target: MERS-CoV 3CLpro (nsp5 protease), without any N- or C-terminal extensions (MERS-CoV); assay: AUC
[4] = target: HKU4-CoV 3CLpro (bat coronavirus HKU4)

## SARS-CoV 3CLpro with authentic N and C termini (enzyme)
[1]
  Kd: 0.06 µM

## MERS-CoV 3CLpro (nsp5 protease), without any N- or C-terminal extensions (enzyme)
[2]
  Kd: 7.8 µM
[3]
  Kd: 52 µM
  koff: 0.0001 s⁻¹
  stoichiometry N: 2

## HKU4-CoV 3CLpro (enzyme)
[4]
  Kd: 0.1 µM
